# Reference: publication PMC3734085 (The Journal of Cell Biology, 2013)
# T1: Snc2p-M2-His6 (R75E R79E K82E) reconstituted into liposomes (S. cerevisiae, UniProt P33328 1-115, R75E | R79E | K82E)
# T1 sequence: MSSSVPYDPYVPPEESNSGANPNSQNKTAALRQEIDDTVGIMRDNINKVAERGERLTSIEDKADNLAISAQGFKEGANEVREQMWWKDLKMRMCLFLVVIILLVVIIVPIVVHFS
# B1: His-tagged Sec6p (pET46-Sec6) (natural protein)
# chain: MSSDPLQQVCDLIKGDLSLERVRDIKEQLLKEKSVVEYQLNKESDKYYGEVEESLKLLNLSKNSVTSIKQQINEVNKLGNDNRFAINRYDILFRATKLYETVNTTSSIYDRIYNFVALMEHIERLLVAELAEDALETGCPHLLEIHFLLTSARDFQEQVVVMAKEATEDAQRTVMKLFSRLSGIISKFDKLLDGLTYDIVEMARAEQISLAIRLFKIYDLEEREDLRIEAIRNIIKKKEIEIEKSSIKKLPNSKNTARLQDETPKVIEYPTNKGLYQEIMSGTISTRTAPRGYKHFLINGINNSISEMFGEMREKYVGDQKFDVLDNMDWIFNELIIVKEHIANCCPPHWNIFEVYFDQYYKELHSLITDLVESEPETIIILDILAFDKTFQDTLKQDFGFTKSEVKSVIGDKEKETLFKDYLNLIVVKMTEWIGNLEKAEFDVFLERSTPPHSDSDGLLFLDGTKTCFQMFTQQVEVAAGTNQAKILVGVVERFSDLLTKRQKNWISKISEEIKKQINYNHKYDIDPESITPEDECPGGLVEYLIAVSNDQMKAADYAVAISSKYGKLVSKVYEKQITNHLEGTLDGFAEVAQCSSLGLITLMFDDLRKPYQEIFSKTWYMGSQAQQIADTLDEYLLDIKPQMNSVLFVNFIDNVIGETIIKFLTALSFEHSFKNKNNKFLEAMKRDFEIFYQLFVKVLDGNESKDTLITQNFTVMEFFMDLSCEPIDSILDIWQKYLEVYWDSRIDLLVGILKCRKDVSSSERKKIVQQATEMLHEYRRNMEANGVDREPTLMRRFVLEFEKQ
# Molecular target: B1
# Test: pull-down
binding result,Kd,Binder
binds,–,GST-Snc2p fragment (28–92 aa) (domain or fragment) TAALRQEIDDTVGIMRDNINKVAERGERLTSIEDKADNLAISAQGFKRGANRVRKQMWWKDLKMR
–,13 ± 6 µM,"GST-Snc2p (cytosolic domain of Snc2p, 1–92 aa, fused to GST) (domain or fragment) MSSSVPYDPYVPPEESNSGANPNSQNKTAALRQEIDDTVGIMRDNINKVAERGERLTSIEDKADNLAISAQGFKRGANRVRKQMWWKDLKMR"
binds,–,GST-Snc2p K82A (domain or fragment) MSSSVPYDPYVPPEESNSGANPNSQNKTAALRQEIDDTVGIMRDNINKVAERGERLTSIEDKADNLAISAQGFKRGANRVRAQMWWKDLKMR
binds,–,GST-Snc2p E51A E54A (M5) (domain or fragment) MSSSVPYDPYVPPEESNSGANPNSQNKTAALRQEIDDTVGIMRDNINKVAARGARLTSIEDKADNLAISAQGFKRGANRVRKQMWWKDLKMR
binds,–,GST-Snc2p E51R E54R (M6) (domain or fragment) MSSSVPYDPYVPPEESNSGANPNSQNKTAALRQEIDDTVGIMRDNINKVARRGRRLTSIEDKADNLAISAQGFKRGANRVRKQMWWKDLKMR
binds,–,GST-Snc2p R75A (domain or fragment) MSSSVPYDPYVPPEESNSGANPNSQNKTAALRQEIDDTVGIMRDNINKVAERGERLTSIEDKADNLAISAQGFKAGANRVRKQMWWKDLKMR
binds,–,GST-Snc2p E60K D61R D64R (M4) (domain or fragment) MSSSVPYDPYVPPEESNSGANPNSQNKTAALRQEIDDTVGIMRDNINKVAERGERLTSIKRKARNLAISAQGFKRGANRVRKQMWWKDLKMR
binds,–,GST-Snc2p E60A D61A D64A (M3) (domain or fragment) MSSSVPYDPYVPPEESNSGANPNSQNKTAALRQEIDDTVGIMRDNINKVAERGERLTSIAAKAANLAISAQGFKRGANRVRKQMWWKDLKMR
binds,–,His-MBP-Sec9ct (416–651 aa) (domain or fragment) ARQQQEEDEAVDEIKQEIKFTKQSSVASTRNTLKMAQDAERAGMNTLGMLGHQSEQLNNVEGNLDLMKVQNKVADEKVAELKKLNRSILAVHVSNPFNSKRRRREREEQLKNRKIEEKLMREQTSQQLSQSTQRIEGAMNANNNISEVRERYQRKNVLEKAKRYQFENDEEDDEMELEIDRNLDQIQQVSNRLKKMALTTGKELDSQQKRLNNIEESTDDLDINLHMNTNRLAGIR
–,18 µM,GERLTSIEDKADNLAISAQGFKRGANRVRKQMWWKDLKMR (domain or fragment) [GST-Snc2p fragment (53–92 aa)]

# Molecular target: T1, Snc2p-M2-His6 (R75E R79E K82E) …
# Test: […], pH 7.4, 0.5 µg/µl BSA
row,fold reduction in binding against wild-type Snc2p liposomes,Binder
1,≥ 2 fold,B1

# Molecular target: B1
# Test: […], pH 7.4, 0.5 µg/µl BSA
row,binding result,Binder
1,binds,"Snc2p-His6, full-length Snc2p reconstituted into liposomes (natural protein) MSSSVPYDPYVPPEESNSGANPNSQNKTAALRQEIDDTVGIMRDNINKVAERGERLTSIEDKADNLAISAQGFKRGANRVRKQMWWKDLKMRMCLFLVVIILLVVIIVPIVVHFS"
